# Results reported in US20240116985A1, “STAPLED PEPTIDES AND METHODS THEREOF” (priority 2020, published 2024).
# Starred links: 1 amine or outer side, 2 acyl side, 3 side chain; linkers in the order of their positions; H or OH if unused. Positions of bridges follow the written chain, without caps; N, C: chain ends. Non-standard residues stand in square brackets, D forms with d. Primed or numbered codes have the meaning given here. *: point of attachment. B5(10) = 2-amino-2-(pent-4-en-1-yl)hept-6-enoic acid, bis(4-pentenyl)glycine, stitching residue bearing both staples, C=CCCCC(CCCC=C)(N[*:1])C(=O)[*:2]; PyrS2″ = (S)-3-amino-1-((pent-4-en-1-yloxy)carbonyl)pyrrolidine-3-carboxylic acid (stapling residue), C=CCCCOC(=O)N1CC[C@@](N[*:1])(C(=O)[*:2])C1; B5(5) = 2,2-bis(4-pentenyl)glycine, 2-amino-2-(pent-4-en-1-yl)hept-6-enoic acid (stitching residue), C=CCCCC(CCCC=C)(N[*:1])C(=O)[*:2]; PyrS2 = (S)-3-amino-1-((pent-4-en-1-yloxy)carbonyl)pyrrolidine-3-carboxylic acid, C=CCCCOC(=O)N1CC[C@@](N[*:1])(C(=O)[*:2])C1; B5(3) = 2,2-bis(4-pentenyl)glycine (stitching residue), C=CCCCC(CCCC=C)(N[*:1])C(=O)[*:2]; BzAm2Allyl = N-terminal 2-allylbenzoic acid (acyl cap), C=CCc1ccccc1C(=O)*; 5hexenyl = N-terminal hex-5-enoic acid (acyl cap), C=CCCCC(=O)*; Phe(3-COOH) = N[C@@H](Cc1cccc(C(=O)O)c1)C(=O)O; Phe(2-Cl) = N[C@@H](Cc1ccccc1Cl)C(=O)O; 1Nal = N[C@@H](Cc1cccc2ccccc12)C(=O)O; Bta = N[C@@H](Cc1csc2ccccc12)C(=O)O; Lys(iPr) = CC(C)NCCCC[C@H](N)C(=O)O; αAllylPro = C=CC[C@@]1(C(=O)O)CCCN1; tBuAla = CC(C)(C)C[C@H](N)C(=O)O; 3Thi = N[C@@H](Cc1ccsc1)C(=O)O; iPr = CC(C)*
# B1: I-2606 (peptide)
# peptide: BzAm2Allyl-XD[B5(3)]ADDAAF[PyrS2]L[3Thi][Bta]Q-NH2
# modifications: staple 3-10; staple (positions not given here); not fully specified (residue 1, bridges); printed as BzAm2Allyl-MePro-Asp-B5-Ala-Asp-Asp-Ala-Ala-Phe-PyrS2-Leu-3Thi-BztA-Gln-NH2; also: -CH=CH- in each staple reduced to -CH2-CH2-
# B2: I-2607 (peptide)
# peptide: BzAm2Allyl-XD[B5(3)]AD[Phe(3-COOH)]AAF[PyrS2]L[3Thi][Bta]Q-NH2
# modifications: staple 3-10; staple (positions not given here); not fully specified (residue 1, bridges); printed as BzAm2Allyl-MePro-Asp-B5-Ala-Asp-3COOHF-Ala-Ala-Phe-PyrS2-Leu-3Thi-BztA-Gln-NH2; also: -CH=CH- in each staple reduced to -CH2-CH2-
# B3: I-2609 (peptide)
# peptide: 5hexenyl-XD[B5(3)]ADDAAF[PyrS2]L[3Thi][Bta]Q-NH2
# modifications: staple 3-10; staple (positions not given here); not fully specified (residue 1, bridges); printed as 5hexenyl-MePro-Asp-B5-Ala-Asp-Asp-Ala-Ala-Phe-PyrS2-Leu-3Thi-BztA-Gln-NH2; also: -CH=CH- in each staple reduced to -CH2-CH2-
# Molecular target: full-length beta-Catenin (Uniprot ID P35222) (Homo sapiens (Human)) (UniProt P35222)
# Test: cell-based or functional assay
# Chain of full-length beta-Catenin (Uniprot ID P35222) (Homo sapiens (Human)) (P35222 whole entry, one chain of several): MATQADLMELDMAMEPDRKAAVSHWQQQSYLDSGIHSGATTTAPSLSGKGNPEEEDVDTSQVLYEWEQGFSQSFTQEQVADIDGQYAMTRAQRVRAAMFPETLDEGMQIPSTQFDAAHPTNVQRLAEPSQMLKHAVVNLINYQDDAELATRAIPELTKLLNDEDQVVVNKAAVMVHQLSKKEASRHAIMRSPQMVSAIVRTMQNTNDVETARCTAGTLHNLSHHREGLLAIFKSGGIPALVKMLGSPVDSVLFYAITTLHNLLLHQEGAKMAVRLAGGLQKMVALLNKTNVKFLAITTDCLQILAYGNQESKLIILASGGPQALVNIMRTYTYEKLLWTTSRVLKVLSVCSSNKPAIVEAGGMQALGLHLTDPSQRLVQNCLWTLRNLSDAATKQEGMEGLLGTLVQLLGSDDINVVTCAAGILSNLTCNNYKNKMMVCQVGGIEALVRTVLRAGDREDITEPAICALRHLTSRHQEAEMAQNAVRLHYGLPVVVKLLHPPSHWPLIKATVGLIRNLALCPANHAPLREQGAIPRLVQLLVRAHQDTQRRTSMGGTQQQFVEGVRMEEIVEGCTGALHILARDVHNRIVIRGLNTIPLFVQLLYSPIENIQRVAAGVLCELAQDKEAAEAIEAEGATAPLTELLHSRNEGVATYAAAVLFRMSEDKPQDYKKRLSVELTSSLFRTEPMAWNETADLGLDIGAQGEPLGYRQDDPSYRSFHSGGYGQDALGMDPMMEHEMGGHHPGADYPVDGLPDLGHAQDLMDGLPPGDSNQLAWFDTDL
row,Binder,DLD1 4% Abs IC50 [nM]
1,B1,> 20000
2,B2,> 20000

# Molecular target: full-length beta-Catenin (Uniprot ID P35222) (Homo sapiens (Human)) (UniProt P35222)
# Test: fluorescence polarization competition against 5FAM TCF4 10-53 probe
row,Binder,IC50 [nM]
1,B3,2650
2,B1,734
3,B2,904

# Molecular target: Bcat-Halo (UniProt P35222)
# Test: NanoBRET Abs IC50, HEK293 cells, Bcat-Halo/TCF4-Luc; competitor TCF4-Luc
# Chain of Bcat-Halo (P35222 whole entry): as the sequence (P35222 whole entry, one chain of several) above
row,Binder,IC50 [nM]
1,"Ac-[αAllylPro]D[tBuAla][B5(5)]DDAAFK(iPr)[PyrS2][Phe(2-Cl)][Bta]T-NH2 (staple 1-4, 4-11) [I-1279]",22900
2,"Ac-[αAllylPro]D[tBuAla][B5(3)]DDK(iPr)AFL[PyrS2″][Phe(2-Cl)][Bta]T-NH2 (staple 1-4, 4-11) [I-1276]",> 20000
3,"Ac-[αAllylPro]D[tBuAla][B5(5)]DDAAFK(iPr)[PyrS2][Phe(2-Cl)][Bta]Q-NH2 (staple 1-4, 4-11) [I-1278]",18000
4,"Ac-[αAllylPro]D[tBuAla][B5(3)]DDK(iPr)AFL[PyrS2″][Phe(2-Cl)][Bta]Q-NH2 (staple 1-4, 4-11) [I-1275]",27800
5,"Ac-[αAllylPro]D[tBuAla][B5(5)]DDAAFK(iPr)[PyrS2][Phe(2-Cl)][Bta]L-NH2 (staple 1-4, 4-11) [I-1280]",24700
6,"Ac-[αAllylPro]D[tBuAla][B5(3)]DDK(iPr)AFL[PyrS2″][Phe(2-Cl)][Bta]L-NH2 (staple 1-4, 4-11) [I-1277]",> 20000
7,"Ac-[αAllylPro]D[tBuAla][B5(3)]DDK(iPr)AFT[PyrS2″][Phe(2-Cl)][Bta]T-NH2 (staple 1-4, 4-11) [I-1273]",> 20000
8,"Ac-[αAllylPro]D[tBuAla][B5(3)]DTAAFT[PyrS2″][1Nal][Bta]S-NH2 (staple 1-4, 4-11) [I-1269]",17600

# Molecular target: full-length beta-Catenin (Uniprot ID P35222) (Homo sapiens (Human)) (UniProt P35222)
# Test: fluorescence polarization competition; full-length beta-catenin + 5FAM-TCF4(10-53) probe
row,Binder,EC50 [nM]
1,"Ac-[αAllylPro]D[tBuAla][B5(5)]DDAAFK(iPr)[PyrS2][Phe(2-Cl)][Bta]T-NH2 (staple 1-4, 4-11) [I-1279]",12
2,"Ac-[αAllylPro]D[tBuAla][B5(3)]DDK(iPr)AFL[PyrS2″][Phe(2-Cl)][Bta]T-NH2 (staple 1-4, 4-11) [I-1276]",10
3,"Ac-[αAllylPro]D[tBuAla][B5(5)]DDAAFK(iPr)[PyrS2][Phe(2-Cl)][Bta]Q-NH2 (staple 1-4, 4-11) [I-1278]",10
4,"Ac-[αAllylPro]D[tBuAla][B5(3)]DDK(iPr)AFL[PyrS2″][Phe(2-Cl)][Bta]Q-NH2 (staple 1-4, 4-11) [I-1275]",9
5,"Ac-[αAllylPro]D[tBuAla][B5(5)]DDAAFK(iPr)[PyrS2][Phe(2-Cl)][Bta]L-NH2 (staple 1-4, 4-11) [I-1280]",22
6,"Ac-[αAllylPro]D[tBuAla][B5(3)]DDK(iPr)AFL[PyrS2″][Phe(2-Cl)][Bta]L-NH2 (staple 1-4, 4-11) [I-1277]",17
7,"Ac-[αAllylPro]D[tBuAla][B5(3)]DDK(iPr)AFT[PyrS2″][Phe(2-Cl)][Bta]T-NH2 (staple 1-4, 4-11) [I-1273]",9
8,"Ac-[αAllylPro]D[tBuAla][B5(3)]DTAAFT[PyrS2″][1Nal][Bta]S-NH2 (staple 1-4, 4-11) [I-1269]",173

# Molecular target: full-length beta-Catenin (Uniprot ID P35222) (Homo sapiens (Human)) (UniProt P35222)
# Test: fluorescence polarization competition against 5FAM-TCF4(10-53) on full-length beta-catenin
row,Binder,IC50 [nM]
1,"Ac-[αAllylPro]D[tBuAla][B5(5)]DDAAFK(iPr)[PyrS2][Phe(2-Cl)][Bta]T-NH2 (staple 1-4, 4-11) [I-1279]",12
2,"Ac-[αAllylPro]D[tBuAla][B5(3)]DDK(iPr)AFL[PyrS2″][Phe(2-Cl)][Bta]T-NH2 (staple 1-4, 4-11) [I-1276]",10
3,"Ac-[αAllylPro]D[tBuAla][B5(5)]DDAAFK(iPr)[PyrS2][Phe(2-Cl)][Bta]Q-NH2 (staple 1-4, 4-11) [I-1278]",10
4,"Ac-[αAllylPro]D[tBuAla][B5(3)]DDK(iPr)AFL[PyrS2″][Phe(2-Cl)][Bta]Q-NH2 (staple 1-4, 4-11) [I-1275]",9
5,"Ac-[αAllylPro]D[tBuAla][B5(5)]DDAAFK(iPr)[PyrS2][Phe(2-Cl)][Bta]L-NH2 (staple 1-4, 4-11) [I-1280]",22
6,"Ac-[αAllylPro]D[tBuAla][B5(3)]DDK(iPr)AFL[PyrS2″][Phe(2-Cl)][Bta]L-NH2 (staple 1-4, 4-11) [I-1277]",17
7,"Ac-[αAllylPro]D[tBuAla][B5(3)]DDK(iPr)AFT[PyrS2″][Phe(2-Cl)][Bta]T-NH2 (staple 1-4, 4-11) [I-1273]",9
8,"Ac-[αAllylPro]D[tBuAla][B5(3)]DTAAFT[PyrS2″][1Nal][Bta]S-NH2 (staple 1-4, 4-11) [I-1269]",173
